In the supplement of paper PMC9170038:

tested on: MS2 coat protein; assay: apparent KD of MS2 coat protein; higher = weaker reporter binding; conditions: Eterna round: R107; input ligand: arginine 13.2 mM
In short: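 The designed RNA switches were transcribed on-chip from Illumina sequencing clusters. In 100 mM Tris-HCl pH 7.5, 80 mM KCl and 4 mM MgCl2, without or with constant ligand, they were titrated with SNAP-549-labelled MS2 coat protein from 0.7 or 1.5 nM to 3 µM in twofold steps. Apparent KD is the per-design median of normalised cluster binding-curve fits.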

Sequence | apparent KD of MS2 coat protein [µM]
AUAACAUGAGGAUCACCCAUGUAAGCAGAUACCAGCUAGGAAACUAGCCCUUGGCAGCUGCAUAGUGAUCCAUAUAUCUGCUAAU [(M1)-(M2)-(T1)-(T2)-(M)'-(T)'_Design8] | 0.0406
UACUUACAUGAGGAUCACCCAUGUGGCGAAGGAGCGGCAUGAGGGCCAGGUAGGUCGCGCCAACAUACAUACAUGAGGAUCUCCC [Same State Arginine A 4] | 0.0463
UUGGCAGCAUGGGUGGCUGCCAAGGCUGAUACCAGCCACGAAAGUGGCCCUUGGCAGCAGCAAACAUGAGGAUCACCCAUGUUAA [(T)''-(M)'-(T)'-(Theo)-(Ms2)_Design3] | 0.0872
CGUCGAAACUGAAGGAGCGAGAUAACAACAUUGGGUCUCAACAUGAGGAUCACCCAUGUAUCUCAGGUAGGUCGCGGUGUCACCG [Exclusion Arginine B GF19] | 0.176
CCGUCACAUGAGGAUCACCCAUGUGCGGAAGGAGCGGACGACAGUCCAGGUAGGUCGCCGUAUAGCCAAUGACCAGCAGUGUCGG [Betesotiqu] | 0.0059
AUACAUGAGGAUCACCCAUGUUAUAGUGAAGGAGCGACAUUUAUGUCAGGUAGGUCGCACUAUUGUUUAAUGAUUCUUGGAUCUU [JR_ExcArginiA_Sub017] | 0.0169
GGGCCCGUAAGCAGGCCCACAGCGGGUGAUACCAGCAAUAAAACUUGCCCUUGGCAGCACACAGCUACAUGAGGAUCACCCAUGU [Mausdi] | 0.0243
UGUAUGUGAACUGAUACCAGACCUCAAUCUUGAGGAUCACCCAAGGAGGACGAAAGUCCGGUCCCUUGGCAGCAGUUCACAUACU [ThBS - Unstable 2] | 0.162
CGGUCGGUCGGUCGGUGAGUAUGGGAUGAAGGAGCGUGGGAAGCUACAGGUAGGUCGCAUCCGGGACAUGAGGAUCACCCAUGUU [#19 Same State - Arginine A] | 0.0198
UUCAGCUAGUCGGCCGCCACUACUUGAGGAUCACCCAGGUAGGUCCACACUGCUUCGGCAGUGAGUAGGACCGGGACUAGCUGAG | 0.031
UGUAUGGACUGAAGGAGCGCCUCAAAAUAGCUUGAGGAUCACCCAAGUAAGGCGAAAGCCGGGCAGGUAGGUCGCAGUCCAUACU [ArgBX 3] | 0.0123
UCGAUGGUAUCUGAUACCAGUAGCGUGCGUUACAUGAGGAUCACCCAUGUGCCUAUACUUUACCCUUGGCAGCAGUGGAUUCGAU [theeternabot_sameState_MS2_Theo_B_22] | 0.0571
UCGUGUGUUUCGGAUACCAGUGAAAUCGAUACAUGAGGAUCACCCAUGUGAGAGGAUGUACACCCUUGGCAGCUGUCUGUAUCUG [asczmullin] | 0.0147
AGUAUUGGAAACAGUACUAGUGAUCCGGUCCGAGGACCGGUACGGCCGCCACUCGAUUUAAAUAAACAUGAGGAUCACCCAUGUA [Ex Tryptophan A 14] | 0.0158
UACCGAUGAAGAAGGAGCGAUUUUAUGUUACAUGAGGAUCACCCAUGUGGACUAGGUGAAGAUCAGGUAGGUCGCUUCAUCGGUA [SSAB NP+V+V2 #20] | 0.0198
UCGCUAUUGUCGGCCGCCACUACUGCAGGGAAACAAAUAUAACCACAUGAGGAUCACCCAUGUCUUAGGACCGGGACACCCAUCU [theeternabot_sameState_MS2_Trp_B_2] | 0.0548
GCUGUAAGUGCAGAUACCAGCAAGUGAGGUUUCAUAUGACAUGAGGAUCACCCAUGUAUCUGCCCUUGGCAGCUGCACUUACAGC [#28 Same State - Theophylline B] | 0.017
UUCUUUAAGUCGGCCGCCACUGAAACAUGAGGAUCACCCAUGUAAAUUUGGGAGUAGUUAUAUUACAGGACCGGGACUAUAGUAA [JR_ExcTryptoB_Sub020] | 0.0348
AGACAUGAGGAUCACCCAUGUAGUACGGAUACCAGAUCCAGAUGUAUCCCUUGGCAGCUGUGGUACAGCGUUACAUCGCUCGUAG [Exclusion - Theophylline A (Freestyle 21)] | 0.0104

Sequence | apparent KD of MS2 coat protein [µM]
GUGUCCUAGUCGGCCGCCACUGGUACGAAUACCUUCACCCGUGUGCACAUGAGGAUCACCCAUGUCAGGACCGGGACUAGGGUGU [SSTryp B #24] | 0.00987
GGACUAACCAGAAGGAGCGAUACGCAGAAACUGCAAUUUCCUCUACACGAGGAUCACCCGUGUCAGGUAGGUCGCUGGUUAGUCG | 0.0252
GCUACGUGCUGAAGGAGCGUGGACCUAAACAUGAGGAUCACCCAUGUCGUGUAGGCAGAUUCACAGGUAGGUCGCAGCACGUAGC [SSAB NP+V+V2 #14 Same Structure] | 0.0612
GUUGAGACCUCGGCCGCCACUCGCCAUGAGGAUCUCCCAUGUAACAUGAGGAUCACCCAUGUACUGAGGACCGGGAGGUCCUUGU [Same State Tryptophan B GF 16] | 0.012
ACAUGAGGAUCACCCAUGUAGCCUAGGGAAGGAGCGUCGUAAGAGACAGGUAGGUCGCCCGCAUGUGAGUCAUCCAUGACGAGGG [#18 Same State - Arginine A] | 0.0257
AUCGUACCUGGUGAUACCAGCAAGUGAUUAUAACAUGAGGAUCACCCAUGUAAUCAGUGAUGCCCUUGGCAGCAUAAUCGGUACA [#24 Same State - Theophylline B] | 0.0269
CUAUAUGGAAACAUAUAGAAGCGAAAGCAACGAGGACCGGUACGGCCGCCACUCGAAGAGUGGUGGACAUGAGGAUCACCCAUGU [Design 3] | 0.0408
AGAUGUAGCGGAAGGAGCGUCAUGAGGAUCACCCAUGACUCCCGUUGUGGGAGUUCCUUAGGUCAGGUAGGUCGCCGUUACGUCA [Omei Arg B SS B v5] | 0.0914
AUCAUAAUAGCCUCGUGUAAUUAAAUGGAACGAGGACCGGUACGGCCGCCACUCGAUAUAAACAUGAGGAUCACCCAUGUAAGCA [JR_ExcTryptoA_Sub004] | 0.0305
GCACCAGGUACGGAUACCAGAGCAAGCCAAAUGAGUGACCAUGAGGAUCACCCAUGGUUGCUCCCUUGGCAGCCGUACCUGGUGC [ETB NP+V+V2 #13 Diff Apt, +-Same Structure] | 0.00728
UGUAUGUGAUCUGAUACCAGUCCAACUGGUAAAACCUGAGGAUCACCCUGGUAAAAUUGGGACCCUUGGCAGCAGAUCGCAUACU | 0.222
AACGUAUACAGAAGGAGCGUGAUUUAUAAUUCUUUAAAAUAUACAUGAGGAUCACCCAUGUCACAGGUAGGUCGCUGUAUUCGUA [JR_ExcArginiB_Sub024] | 0.0298
ACGCUGAUUGAUUACAAUCAGCGAAAAGAUACCAGUGGGUAAUCCCACCCUUGGCAGCUUAAAUAUGAGGAUCACCCAUAUGGUA [TheoAS 18 #MS2Right #BothOrNeither #AlternativeMS2] | 0.0546
CUGGACAUGAGGAUCACCCAUGUAAAUCCUCGAGGACCGGUACGGCCGCCACUCGAACGAGUGGCGCGCGAGUGCGCACUCGCGC [aKa] | 0.0436
AAUCAUAGGGCGGCCGCCACUAAACAUGAGGAUCACCCAUGUCUCGAGGGCUUGCGUUUGGGAAGUAGGACCGGGCCAAUAGUAA [Tryp B Ex Mod2] | 0.018
GUUACCAUGUCGGCCGCCACUAACAAGGUUAUGGCAAGUCUACACGACAUGAGGAUCACCCAUGUUAGGACCGGGACCCAUACCC [theeternabot_exclusion_MS2_Trp_B_44] | 0.0122
AUUUACAUGGUCAUAUAUAUAUCGUCAGAUACCAGACUAGAUAUUGUCCCUUGGCAGCUGUUACAUGAGGAUCACCCAUGUUAUA [JR_Nu_ExcTheophyA_Sub020] | 0.0545
AGAGCAUUGACGGCCGCCACUCAUGUCACAUGAGGAUCACCCAUGUGAUGGGUAAUCGCCCGGUUGAGGACCGGGUCAAUGCUCA [Omei Tryp SS B v3] | 0.00669
UCUUUCUAUGUAGAUACCAGCAUGUUAUAUUUCUAAUGACAUGAGGAUCACCCAUGUAAAUGCCCUUGGCAGCUACAUUUUCUUU [SSTHB #4] | 0.0216

same assay, conditions: Eterna round: R107; input ligand: none

Sequence | apparent KD of MS2 coat protein [µM]
UACUUACAUGAGGAUCACCCAUGUGGCGAAGGAGCGGCAUGAGGGCCAGGUAGGUCGCGCCAACAUACAUACAUGAGGAUCUCCC [Same State Arginine A 4] | 0.0789
UUGGCAGCAUGGGUGGCUGCCAAGGCUGAUACCAGCCACGAAAGUGGCCCUUGGCAGCAGCAAACAUGAGGAUCACCCAUGUUAA [(T)''-(M)'-(T)'-(Theo)-(Ms2)_Design3] | 0.0863
CGUCGAAACUGAAGGAGCGAGAUAACAACAUUGGGUCUCAACAUGAGGAUCACCCAUGUAUCUCAGGUAGGUCGCGGUGUCACCG [Exclusion Arginine B GF19] | 0.202
